Measurements from patent US20240052052A1 (ANTENGENE BIOLOGICS, published 2024).

T1: human CD24 (human, UniProt P25063 27-59, heavily glycosylated, GPI-anchored (as described in the background))
T1 chain (looked up): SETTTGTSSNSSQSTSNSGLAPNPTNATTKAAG


Legend:
human CD24 [1] = target: T1, human CD24; test: cell-based or functional assay
human CD24 [2] = target: T1, human CD24; test: FACS, Nalm1 cells
Protocol: (§1) Sequences of some of antibodies from Table 1 were selected to generate and produce human IgG4 chimeric antibodies. […] The protocol for FACs analysis is described as follows: [0536] a. Digested cells using TrypLE™ Express Enzyme (IX); Centrifuged the harvested cells at 400 g for 5 min and discarding the supernatant. [0537] b. Washed the cells 2 times with cold FACS buffer by centrifuging at 400 g for 5 min and discarding the supernatant. [0538] c. […] Incubate at […] for 1 h. [0539] d. Washed the cells twice by using the condition in step b. Resuspended the cells with 100 μl/well diluted 2nd antibody, incubated at 4 degree for 1 h in the dark. [0540] e. Washed the cells twice by using the condition in step b. Resuspended the cells with 100 μl/well cold FACS buffer. Kept the cells in dark for FACS analysis.

human CD24 [3] = target: T1, human CD24; test: FACS, CHOK1-hCD24 cells
Protocol: as §1

human CD24 [4] = target: T1, human CD24; test: FACS, 293F-hCD24 cells
Protocol: as §1

human CD24 [5] = target: T1, human CD24; test: FACS, 5637 cells
Protocol: as §1

human CD24 [6] = target: T1, human CD24; test: FACS, MCF7 cells
Protocol: as §1

human CD24 [7] = target: T1, human CD24; test: FACS, MDA-MB-468 cells
Protocol: as §1

human CD24 [8] = target: T1, human CD24; test: FACS, H1975 cells
Protocol: (§2) Screening & Expansion: The subcloning plates were screened by Acumen assay and the subclones with good binding ability were expanded to 24-wells for confirmation tests. The specificity and cross-reactivity of these subclones were confirmed with FACs analysis. […] Fluorescent dye-conjugated secondary antibody was used to detect the binding of the primary antibody with the cells. Median fluorescence intensity (MFI) was measured by FACs analysis.

human CD24 [9] = target: T1, human CD24; test: FACS, 293F-hCD24 cells
Protocol: as §2

human CD24 [10] = target: T1, human CD24; test: FACS, MCF7 cells
Protocol: as §2

human CD24 [11] = target: T1, human CD24; test: FACS, HT-29 cells
Protocol: as §1

human CD24 [12] = target: T1, human CD24; test: FACS, H1975 cells
Protocol: as §1

human CD24 [13] = target: T1, human CD24; test: FACS, Nalm1 cells
Protocol: as §2

human CD24 [14] = target: T1, human CD24; test: FACS, 5637 cells
Protocol: as §2

human CD24 [15] = target: T1, human CD24; test: FACS, A549 cells
Protocol: as §1

Binder	EC50 (nM), phagocytosis against HT-29 cells (human CD24 [1])	Max phagocytosis Index (%), phagocytosis against HT-29 cells (human CD24 [1])	EC50 (human CD24 [2])	Max MFI (human CD24 [2])	EC50 (human CD24 [3])	Max MFI (human CD24 [3])	EC50 (human CD24 [4])	Max MFI (human CD24 [4])	EC50 (human CD24 [5])	Max MFI (human CD24 [5])	EC50 (human CD24 [6])	Max MFI (human CD24 [6])	EC50 (human CD24 [7])	Max MFI (human CD24 [7])	further results
ch56A7E3-hIgG4 (antibody, V domains shown, chimeric) VH: EVQLQQSGPELVKPGASVKIPCKASGYTFTAYNMDWVKQSHGMSLEWIGDINPINGGTIYNQNFEGKATLTVDKSSSTAYLELRSLTSEDTAVYYCARRGSYYYGSSHYALDFWGQGTSVSVSS VL: DIQMTQITSSLSASLGDRVTITCRASQDISNYLNWYQQKPDGTVKLLIYYTSRLLSGVPSRFSGSGSGTDYSLTISNLEQEDIATYFCQQDHTLPRTFGGGTKLEIR	4.74 nM	55.2%	66.4 nM	80300	3.04 nM	54100	3.7 nM	57100	139 nM	61100	83.7 nM	22800	18.7 nM	54200	
33E7E12 (antibody, V domains shown, mouse monoclonal antibody) VH: EVKLEESGGGLVQPGGSMKLSCFVSGFTFSNSWMNWVRQSPEKGLEWVAQIQLKSDNYATRYVESVRGRFIISRDDSKSSVSLQMNNLRTEDTGIYYCSSGTDYWGQGTTLTVSS VL: not shown			6.2 nM	45500	1.86 nM	24100	2.4 nM	24200	4.37 nM		2.38 nM		3.45 nM		FACS MFI (human CD24 [8]): 6110; FACS MFI (human CD24 [9]): 24200; FACS MFI (human CD24 [10]): 5410; EC50 (human CD24 [11]): 3.4 nM; Max MFI (human CD24 [11]): 2450; EC50 (human CD24 [12]): 8.15 nM; FACS MFI (human CD24 [13]): 45500; FACS MFI (human CD24 [14]): 14100; FACS MFI (human CD24 [7]): 10900
ch33E7E12-hIgG4 (antibody, V domains shown, chimeric) VH: EVKLEESGGGLVQPGGSMKLSCFVSGFTFSNSWMNWVRQSPEKGLEWVAQIQLKSDNYATRYVESVRGRFIISRDDSKSSVSLQMNNLRTEDTGIYYCSSGTDYWGQGTTLTVSS VL: not shown	3.25 nM	33.3%	11.8 nM	34400	2.66 nM	56600	4.56 nM	55200	7.27 nM	25600	4.75 nM	16100	6.8 nM	20100	
100F2E3 (antibody, V domains shown, mouse monoclonal antibody) VH: QVQLQQPGAELVRPGSSVKLSCKTSDYTFTSYWMDWVKQRPGQGLEWIGNIYPSDSKTHSNQKFRDKATLTVDKSSSTAYMQLNSLTSEDSAVYYCARRGGYYGYAMDYWGQGTSVTVSS VL: DIVMTQSPSSLSVSAGEKVTMSCKSSQSLLNSGNQDNYLAWYQQKPGQPPKLLIYGASIRESGVPDRFTGSGSGTDFTLTISSVQAEDLAVYYCQNDHSYPYTFGGGTKLEIK			8.88 nM	58800	1.71 nM	22300	11.4 nM	44100	9.47 nM		8.08 nM		19.6 nM		EC50 (human CD24 [15]): 6.58 nM; Max MFI (human CD24 [15]): 8670; FACS MFI (human CD24 [8]): 6900; FACS MFI (human CD24 [9]): 44100; FACS MFI (human CD24 [10]): 7160; EC50 (human CD24 [11]): 9.55 nM; Max MFI (human CD24 [11]): 2420; EC50 (human CD24 [12]): 10 nM; FACS MFI (human CD24 [13]): 58800; FACS MFI (human CD24 [14]): 22100; FACS MFI (human CD24 [7]): 44000
ch81A7A10-hIgG4 (antibody, V domains shown) VH: QVQLKESGPGLVAPLQSLSITCTVSGFSLSSYGVSWVRQLPGKGLEWLGVIWGDGSTDYHSTLTSRLSFSKDNSESQVFLKLNSLQTDDTATYYCAIFYGYDEGFAYWGQGTLVTVSA VL: ENVLTQSPAIMSAFLGEKVTMSCRASSTVNYMYWYQQKSDASPKVWIYYTSRLAPGVPARFSGSGSGNSFSLTISSMEGEDAATYYCQQFTSSPLTFGAGTKLELR	0.157 nM	78.4%													

Now from value to binder, other results behind:

EC50 (nM), phagocytosis against HT-29 cells (human CD24 [1])	Max phagocytosis Index (%), phagocytosis against HT-29 cells (human CD24 [1])	EC50 (human CD24 [2])	Max MFI (human CD24 [2])	EC50 (human CD24 [3])	Max MFI (human CD24 [3])	EC50 (human CD24 [4])	Max MFI (human CD24 [4])	EC50 (human CD24 [5])	Max MFI (human CD24 [5])	EC50 (human CD24 [6])	Max MFI (human CD24 [6])	EC50 (human CD24 [7])	Max MFI (human CD24 [7])	Binder	further results
0.042 nM	80.4%	5.8 nM	109000	2.27 nM	62100	3.55 nM	80900	6.44 nM	42900	4.35 nM	20600	9.07 nM	56700	ch33E7E12-hIgG1 (antibody, V domains shown, chimeric) VH: EVKLEESGGGLVQPGGSMKLSCFVSGFTFSNSWMNWVRQSPEKGLEWVAQIQLKSDNYATRYVESVRGRFIISRDDSKSSVSLQMNNLRTEDTGIYYCSSGTDYWGQGTTLTVSS VL: not shown	
1.9 nM	71.2%	2.78 nM	77700	> 100 nM	59300	3.73 nM	60400	3.42 nM	20200	6.85 nM	7960	7.39 nM	71900	ch100F2E3-hIgG4 (antibody, V domains shown, chimeric) VH: QVQLQQPGAELVRPGSSVKLSCKTSDYTFTSYWMDWVKQRPGQGLEWIGNIYPSDSKTHSNQKFRDKATLTVDKSSSTAYMQLNSLTSEDSAVYYCARRGGYYGYAMDYWGQGTSVTVSS VL: DIVMTQSPSSLSVSAGEKVTMSCKSSQSLLNSGNQDNYLAWYQQKPGQPPKLLIYGASIRESGVPDRFTGSGSGTDFTLTISSVQAEDLAVYYCQNDHSYPYTFGGGTKLEIK	
0.098 nM	76.6%	1.31 nM	101000	3240 nM	85300	3.35 nM	117000	2.47 nM	54100	2.31 nM	25400	5.75 nM	90800	ch81A1F8-hIgG4 (antibody, V domains shown, chimeric; also called chAb81A1F8; ch81A1F8-IgG4) VH: EVQLQQSGPELVKPGASVKISCKATGYLFTGYYMNWVKQSPEKSLEWIGEINPNTGDTNNNQKFKAKATMTVDRSSSTAYMQLKRLTSEDSAVYYCVRRDYGTSLDYWGQGTTLTVSS VL: DVQITQSPSYLAASPGETITINCRASKSINKYLAWYQEKPGKTNKLLIHSGSTLQSGIPSRFSGSRSGTDFTLTISNLEPEDFAMYYCQQHNEYPITFGAGTKLELK	
		1.95 nM	111000	35.4 nM	99500	2.82 nM	112000	2.18 nM	49900	2.01 nM	22700	5.44 nM	89700	ch110D4G4-hIgG4 (antibody, V domains shown, chimeric; also called chAb110D4G4) VH: EVQLQQSGPGLVKPGASVKISCRASGYLFTGYYMNWVKQSPEKSLEWIGEINPNTGDPRYDQKFKAKATLTVDRSSSTAYMHLKSLTSEDSAVYFCARRDYGTSLDYWGQGTTLTVTS VL: DVQITQSPSYLAASPGETITINCRASKSISKYLAWYQEKPGKTNKLLIYSGSTLQSGIPSRFSGSGSGSDFTLTISSLEPEDFAMYYCQQHNEYPLTFGAGTKLELK	
